In paper PMC10008584, “Cryo-EM structures of human Cx36/GJD2 neuronal gap junction channel” (Nature Communications, 2023):

What was measured:
[1] = target: BRIL-fused human Cx36 (cytoplasmic loop residues 109-187 replaced with cytochrome b562RIL) (UniProt Q9UKL4); test: cryo-EM structure; single-particle cryo-EM of the purified gap junction channel in LMNG/CHS detergent; D6 symmetry; 50 mM phenylalanine added for Cx36-WT
[2] = target: the molecule itself; test: as above
[3] = target: the molecule itself; test: cryo-EM structure; single-particle cryo-EM of the purified gap junction channel in MSP1E1 nanodiscs with soybean polar lipid extract; D6, C6 or C1 symmetry; 50 mM phenylalanine added for Cx36-WT

Question: Which stoichiometry N [1] does the source give for “BRIL-fused human Cx36 (cytoplasmic loop residues 109-187 replaced with cytochrome b562RIL) (from UniProt Q9UKL4 1-108; P0ABE7 21-128; Q9UKL4 188-321)” here?
Answer: Its stoichiometry N is 12.

B1: Wild-type human connexin 36 (Cx36/GJD2) gap junction channel (natural protein, UniProt Q9UKL4 1-321, looked up)
chain: MGEWTILERLLEAAVQQHSTMIGRILLTVVVIFRILIVAIVGETVYDDEQTMFVCNTLQPGCNQACYDRAFPISHIRYWVFQIIMVCTPSLCFITYSVHQSAKQRERRYSTVFLALDRDPPESIGGPGGTGGGGSGGGKREDKKLQNAIVNGVLQNTENTSKETEPDCLEVKELTPHPSGLRTASKSKLRRQEGISRFYIIQVVFRNALEIGFLVGQYFLYGFSVPGLYECNRYPCIKEVECYVSRPTEKTVFLVFMFAVSGICVVLNLAELNHLGWRKIKLAVRGAQAKRKSIYEIRNKDLPRVSVPNFGRTQSSDSAYV
notes: Connexin 36 (Cx36, GJD2), human, full length (Met1-Val321); The tags were cut off at an HRV 3C site between Cx36 and eYFP; residues of the site may be left at the C-terminus; also called Cx36-WT; Cx36_(LMNG)-WT; source: HEK293E, transiently transfected, purified (Rho-1D4 antibody resin, HRV 3C cleavage, Superose 6 Increase SEC); in LMNG/CHS or reconstituted in MSP1E1 soybean lipid nanodiscs; not …
Question: How did the “stoichiometry N” value [2] turn out when B1 was run?
Answer: Its value is 12.

B2: Human Cx36 with N-terminal residues 2-8 deleted (natural protein, UniProt Q9UKL4 1-321, looked up)
chain: MRLLEAAVQQHSTMIGRILLTVVVIFRILIVAIVGETVYDDEQTMFVCNTLQPGCNQACYDRAFPISHIRYWVFQIIMVCTPSLCFITYSVHQSAKQRERRYSTVFLALDRDPPESIGGPGGTGGGGSGGGKREDKKLQNAIVNGVLQNTENTSKETEPDCLEVKELTPHPSGLRTASKSKLRRQEGISRFYIIQVVFRNALEIGFLVGQYFLYGFSVPGLYECNRYPCIKEVECYVSRPTEKTVFLVFMFAVSGICVVLNLAELNHLGWRKIKLAVRGAQAKRKSIYEIRNKDLPRVSVPNFGRTQSSDSAYV
notes: Connexin 36 (Cx36, GJD2), human, full length with 7 N-terminal residues (2-8) deleted; Made by PCR from pXY-Cx36-WT; expressed and purified by the same protocol as Cx36-WT; also called Cx36-ΔN8; Cx36_(Nano)-ΔN8; source: HEK293E, transiently transfected, purified as Cx36-WT; reconstituted in MSP1E1 soybean lipid nanodiscs; not shown: eYFP, C-terminal, cleaved; 10xHis, C-terminal, cleaved; copies: …
Question: Does B2 bind [3]?
Answer: Result: binds
